From patent US20200405762A1 (published 2020) come the findings set out here.

Assay in all cases: multimer staining
For experiment [1], the target named is T1, cyclin A1 (CCNA1), isoform 3 (SEQ ID NO:4) peptide on HLA-A*02:01 (human).
T1 peptide: SLIAAAAFCLA

For experiment [2], the target named is T2, cyclin A1 (CCNA1), isoform 3 (SEQ ID NO:4) peptide on HLA-A*02:01 (human).
T2 peptide: YSLSEIVPCL

The target in experiment [3] is T3, cyclin A1 (CCNA1), isoform 3 (SEQ ID NO:4) peptide on HLA-A*02:01 (human).
T3 peptide: FLDRFLSCM

B1: TCR #7 (TCR, V domains shown)
Valpha: ILNVEQSPQSLHVQEGDSTNFTCSFPSSNFYALHWYRWETAKSPEALFVMTLNGDEKKKGRISATLNTKEGYSYLYIKGSQPEDSATYLCAYLGAGNQFYFGTGTSLTVIP
Vbeta: DGGITQSPKYLFRKEGQNVTLSCEQNLNHDAMYWYRQDPGQGLRLIYYSQIVNDFQKGDIAEGYSVSREKKESFPLTVTSAQKNPTAFYLCASSLNRGRYGYTFGSGTRLTVV
Regarding B1, the binding result in experiment [1] is listed as “recognises”.

B2: TCR #8 (TCR, V domains shown)
Valpha: AQKVTQAQTEISVVEKEDVTLDCVYETRDTTYYLFWYKQPPSGELVFLIRRNSFDEQNEISGRYSWNFQKSTSSFNFTITASQVVDSAVYFCALSELASGGSYIPTFGRGTSLIVHP
Vbeta: DAGVTQSPTHLIKTRGQQVTLRCSPKSGHDTVSWYQQALGQGPQFIFQYYEEEERQRGNFPDRFSGHQFPNYSSELNVNALLLGDSALYLCASSFRLAGGPSTDTQYFGPGTRLTVL
In the case of B2, in experiment [2], the binding result is recorded as “recognises”.

B3: TCR #4 (TCR, V domains shown)
Valpha: SQQGEEDPQALSIQEGENATMNCSYKTSINNLQWYRQNSGRGLVHLILIRSNEREKHSGRLRVTLDTSKKSSSLLITASRAADTASYFCATDAWESNFGNEKLTFGTGTRLTIIP
Vbeta: GAGVSQSPSNKVTEKGKDVELRCDPISGHTALYWYRQSLGQGLEFLIYFQGNSAPDKSGLPSDRFSAERTGGSVSTLTIQRTQQEDSAVYLCASSLVVGSYEQYFGPGTRLTVT
As for B3, the binding result in experiment [3] was “recognises”.

B4: TCR #3 (TCR, V domains shown)
Valpha: QKEVEQNSGPLSVPEGAIASLNCTYSDRGSQSFFWYRQYSGKSPELIMSIYSNGDKEDGRFTAQLNKASQYVSLLIRDSQPSDSATYLCAVDSGGYQKVTFGTGTKLQVIP
Vbeta: GAGVSQTPSNKVTEKGKYVELRCDPISGHTALYWYRQSLGQGPEFLIYFQGTGAADDSGLPNDRFFAVRPEGSVSTLKIQRTERGDSAVYLCASSLNMNTEAFFGQGTRLTVV
With B4, the binding result in experiment [3] is reported as “recognises”.
